Target: T1, YTHDF3 (mouse, UniProt Q8BYK6 1-585)
T1 sequence: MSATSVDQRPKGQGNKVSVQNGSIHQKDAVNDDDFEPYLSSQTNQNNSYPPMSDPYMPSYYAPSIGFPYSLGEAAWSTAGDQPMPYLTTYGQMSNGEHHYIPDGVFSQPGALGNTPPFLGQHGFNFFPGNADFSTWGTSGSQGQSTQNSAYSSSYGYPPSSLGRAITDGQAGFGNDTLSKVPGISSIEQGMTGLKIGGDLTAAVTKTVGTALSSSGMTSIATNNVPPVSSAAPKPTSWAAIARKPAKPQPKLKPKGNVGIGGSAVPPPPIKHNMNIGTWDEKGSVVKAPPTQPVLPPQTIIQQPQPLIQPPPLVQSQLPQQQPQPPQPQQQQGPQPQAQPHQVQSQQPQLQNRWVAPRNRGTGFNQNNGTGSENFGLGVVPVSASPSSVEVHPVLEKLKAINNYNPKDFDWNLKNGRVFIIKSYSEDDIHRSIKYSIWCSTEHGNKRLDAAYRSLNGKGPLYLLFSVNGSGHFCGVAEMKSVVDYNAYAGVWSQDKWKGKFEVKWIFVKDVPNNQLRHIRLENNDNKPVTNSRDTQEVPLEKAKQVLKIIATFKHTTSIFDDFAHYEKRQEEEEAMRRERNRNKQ
Assay: EMSA; LightShift Chemiluminescent RNA EMSA kit; 20 pmol RNA, 6 ug YTHDF3, room temperature 30 min; 6% TBE gel, 0.5x TBE; buffer salt and pH not stated
Conditions: protein: commercial; label: 5' biotin

B1: Foxo3-CDS-m6A-biotin-RNAProbe 1 (ssRNA)
RNA: GUGACUUGGACCUGGAC
modifications: m6A at A4, A10, A16 (from text sites 2151, 2158, 2163 nt; the modified probe line is not in the material)
  binding result: binds

— article PMC9532426, “Autophagy induction promoted by m6A reader YTHDF3 through translation upregulation of FOXO3 mRNA”
